For one molecule, Kd results are on record in PMC5797019 (2017).

Usually Kd stands for the concentration at which binding is half-saturated. A lower Kd goes with tighter binding.

The test deals with vp22-RelA302-316 peptide (herpes virus | , UniProt Q04206 302-316). Description: SPR. On the technique in general: Surface plasmon resonance follows binding to a sensor surface in real time, without labels.

B1: His-SETD6 (enzyme)
chain: MATQAKRPRVAGPVDGGDLDPVACFLSWCRRVGLELSPKVSERAGGRRTRGGARAALTSPPAQVAVSRQGTVAGYGMVARESVQAGELLFVVPRAALLSQHTCSIGGLLERERVALQSQSGWVPLLLALLHELQAPASRWRPYFALWPELGRLEHPMFWPEEERRCLLQGTGVPEAVEKDLANIRSEYQSIVLPFMEAHPDLFSLRVRSLELYHQLVALVMAYSFQEPLEEEEDEKEPNSPVMVPAADILNHLANHNANLEYSANCLRMVATQPIPKGHEIFNTYGQMANWQLIHMYGFVEPYPDNTDDTADIQMVTVREAALQGTKTEAERHLVYERWDFLCKLEMVGEEGAFVIGREEVLTEEELTTTLKVLCMPAEEFRELKDQDGGGDDKREEGSLTITNIPKLKASWRQLLQNSVLLTLQTYATDLKTDQGLLSNKEVYAKLSWREQQALQVRYGQKMILHQLLELTS
Molecule B1 yielded a Kd of 1100 nM.
